Test results from US20220332795A1 (ARO BIOTHERAPEUTICS, published 2022).

Key:
[1] = target: T1, CD71 apical domain (UniProt P02786 189-383, limits assumed); experiment: solution ELISA
T1 construct: domain: Apical domain

[2] = target: T2, recombinant biotinylated human CD71 extracellular domain (human, UniProt P02786 89-760, biotinylated); experiment: solution ELISA
T2 construct: extracellular domain; also called hCD71; huCD71 ECD

[3] = target: T1, CD71 apical domain; experiment: solution ELISA, signal ratio to HSA
[4] = target: T2, recombinant biotinylated human CD71 …; experiment: solution ELISA, signal ratio to HSA

T1 sequence (P02786 189-383 limits assumed): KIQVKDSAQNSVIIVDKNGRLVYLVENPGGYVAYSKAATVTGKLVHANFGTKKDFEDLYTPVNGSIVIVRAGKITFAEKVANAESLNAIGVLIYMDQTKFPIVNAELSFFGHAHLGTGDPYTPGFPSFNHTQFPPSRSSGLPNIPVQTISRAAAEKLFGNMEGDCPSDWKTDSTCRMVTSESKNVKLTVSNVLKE
T2 sequence (P02786 other isoform, or with tags, fused parts or gaps): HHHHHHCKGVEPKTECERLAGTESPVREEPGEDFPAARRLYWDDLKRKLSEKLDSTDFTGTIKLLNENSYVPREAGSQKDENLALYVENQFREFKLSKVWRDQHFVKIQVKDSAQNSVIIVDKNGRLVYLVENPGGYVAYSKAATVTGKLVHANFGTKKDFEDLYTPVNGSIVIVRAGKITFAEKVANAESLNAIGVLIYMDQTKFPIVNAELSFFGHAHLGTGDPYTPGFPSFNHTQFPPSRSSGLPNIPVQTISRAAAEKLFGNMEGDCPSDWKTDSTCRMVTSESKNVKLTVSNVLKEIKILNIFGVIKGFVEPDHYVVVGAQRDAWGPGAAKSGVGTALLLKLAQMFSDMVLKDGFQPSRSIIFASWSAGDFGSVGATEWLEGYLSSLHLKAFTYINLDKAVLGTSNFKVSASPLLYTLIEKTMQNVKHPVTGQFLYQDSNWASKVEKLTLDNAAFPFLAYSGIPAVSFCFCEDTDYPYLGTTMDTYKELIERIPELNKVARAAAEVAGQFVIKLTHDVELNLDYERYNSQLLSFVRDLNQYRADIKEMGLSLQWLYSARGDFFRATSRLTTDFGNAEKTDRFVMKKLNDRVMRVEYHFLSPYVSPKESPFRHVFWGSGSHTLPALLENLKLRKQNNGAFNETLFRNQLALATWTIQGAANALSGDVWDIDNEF

Apical domain, RLU [1] | hCD71, RLU [2] | apical domain:HSA [3] | hCD71:HSA [4] | Binder
5.99e+06 RLU | 1.36e+06 RLU | 95.8 | 21.8 | SEQ ID NO 107 (designed binder, FN3 domain) MSLPAPKNLVVSRVTEDSARLSWTAPDAAFDSFYIAYAEPRPDGEAISLYVPGSERSYDLTGLKPGTEYSVLIHGVKGGLLSSPLSAISTT
150000 RLU | 3.47e+06 RLU | 0.9 | 20.1 | SEQ ID NO 115 (designed binder, FN3 domain) MLPAPKNLVVSRVTEDSARLSWTAPDAAFDSFYIAYAEPRPDGEAIELHVPGSERSYDLTGLKPGTEYSVLIHGVKGGLLSSPLFTT
28300 RLU | 5.33e+06 RLU | 0.7 | 138 | SEQ ID NO 109 (designed binder, FN3 domain) MLPAPKNLVVSRVTEDSARLSWTAPDAAFDSFHISYEEDYTFGEAIYLRVPGSERSYDLTGLKPGTEYRVVIGGVKGGWFSEPLLAAFTT
93100 RLU | 638000 RLU | 2.5 | 17 | SEQ ID NO 162 (designed binder, FN3 domain) MLPAPKNLVVSRVTEDSARLSWTAPDAAFDSFYIAYAEPRPDGEAIKLEVPGSERSYDLTGLKPGTEYSVLIHGVKGGLLSSPLAIFTT
6.78e+06 RLU | 1.4e+06 RLU | 144 | 29.6 | SEQ ID NO 197 (designed binder, FN3 domain) MLPAPKNLVVSRVTEDSARLSWTAPDAAFDSFYIAYAEPRPDGEAIKLDVPGSERSYDLTGLKPGTEYSVLIHGVKGGLLSSPLVAFFTT
7.5e+06 RLU | 3.25e+06 RLU | 32.2 | 14 | SEQ ID NO 201 (designed binder, FN3 domain) MLPAPKNLVVSRVTEDSARLSWTAPDAAFDSFYIAYAEPRPDGEAISLWVPGSERSYDLTGLKPGTEYSVLIHGVKGGLLSSPLLAHFTT
6.1e+06 RLU | 930000 RLU | 339 | 51.6 | SEQ ID NO 200 (designed binder, FN3 domain) MLPAPKNLVVSRVTEDSARLSWTAPDAAFDSFYIAYAEPRPDGEAIWLEVPGSERSYDLTGLKPGTEYSVLIHGVKGGLLSSPLVADFTT
7.2e+06 RLU | 3.91e+06 RLU | 342 | 186 | SEQ ID NO 198 (designed binder, FN3 domain) MLPAPKNLVVSRVTEDSARLSWTAPDAAFDSFYIAYAEPRPDGEAIILEVPGSERSYDLTGLKPGTEYSVLIHGVKGGLLSSPLVAYFTT
5.56e+06 RLU | 416000 RLU | 324 | 24.3 | SEQ ID NO 199 (designed binder, FN3 domain) MLPAPKNLVVSRVTEDSARLSWTAPDAAFDSFYIAYAEPRPDGEAIHLWVPGSERSYDLTGLKPGTEYSVLIHGVKGGLLSSPLHADFTT
120000 RLU | 4.04e+06 RLU | 0.8 | 27.9 | SEQ ID NO 184 (designed binder, FN3 domain) MLPAPKNLVVSRVTEDSARLSWTAPDAAFDSFFIGYLEPQPPGEAIDLAVPGSERSYDLTGLKPGTEYSVLIHGVKGGLLSSPLSFTT
77900 RLU | 796000 RLU | 1.1 | 10.9 | SEQ ID NO 187 (designed binder, FN3 domain) MLPAPKNLVVSRVTEDSARLSWTAPDAAFDSFFIGYLEPQPPGEAISLLVPDSERSYDLTGLKPGTEYNVTIQGVKGGFPSMPLKFTT
4.83e+06 RLU | 1.9e+06 RLU | 157 | 61.7 | SEQ ID NO 174 (designed binder, FN3 domain) MLPAPKNLVVSRVTEDSARLSWTAPDAAFDSFFIGYLEPQPPGEAIQLWVPGSERSYDLTGLKPGTEYNVTIQGVKGGFPSMPLSAIFTT
2.44e+06 RLU | 932000 RLU | 182 | 69.6 | SEQ ID NO 108 (designed binder, FN3 domain) MLPAPKNLVVSRVTEDSARLSWTAPDAAFDSFFIGYLEPQPPGEAIQLRVPGSERSYDLTGLKPGTEYNVTIQGVKGGFPSMPLSAIFTT
6.18e+06 RLU | 4.77e+06 RLU | 348 | 269 | SEQ ID NO 121 (designed binder, FN3 domain) MLPAPKNLVVSRVTEDSARLSWTAPDAAFDSFFIGYLEPQPPGEAIALWVPGSERSYDLTGLKPGTEYNVTIQGVKGGFPSMPLSAIFTT
4.78e+06 RLU | 1.25e+06 RLU | 163 | 42.7 | SEQ ID NO 123 (designed binder, FN3 domain) MLPAPKNLVVSRVTEDSARLSWTAPDAAFDSFFIGYLEPQPPGEAIQLWVPGSERSYDLTGLKPGTEYNVTIQGVKGGFPSHPLGAVFTT
1.8e+06 RLU | 1.49e+06 RLU | 80.4 | 66.5 | SEQ ID NO 173 (designed binder, FN3 domain) MLPAPKNLVVSRVTEDSARLSWTAPDAAFDSFHIVYHEPRPSGEAIHLQVPGSERSYDLTGLKPGTEYNVTIQGVKGGFPSYPLSAFFTT
317000 RLU | 603000 RLU | 14.6 | 27.9 | SEQ ID NO 140 (designed binder, FN3 domain) MLPAPKNLVVSRVTEDSARLSWTAPDAAFDSFFIGYLEPQPPGEAIQLEVPGSERSYDLTGLKPGTEYNVTIQGVKGGFPSMPLSAIFTT
74500 RLU | 313000 RLU | 2.7 | 11.5 | SEQ ID NO 163 (designed binder, FN3 domain) MLPAPKNLVVSRVTEDSARLSWTAPDAAFDSFFIGYLEPQPPGEAIYLEVPGSERSYDLTGLKPGTEYNVTIQGVKGGFPSFPLKAAFTT
6.22e+06 RLU | 2.6e+06 RLU | 289 | 121 | SEQ ID NO 114 (designed binder, FN3 domain) MLPAPKNLVVSRVTEDSARLSWTTPDAAFDSFFIGYLEPQPPGEAISLQVPGSERSYDLTGLKPGTEYNVTIQGVKGGFPSSPLFAVFTT
4.77e+06 RLU | 3.69e+06 RLU | 201 | 155 | SEQ ID NO 136 (designed binder, FN3 domain) MLPAPKNLVVSRVTEDSARLSWTAPDAAFDSFFIGYLEPQPPGEAIWLHVPGSERSYDLTGLKPGTEYNVTIQGVKGGFPSIPLIAIFTT
4.04e+06 RLU | 1.23e+06 RLU | 149 | 45.2 | SEQ ID NO 151 (designed binder, FN3 domain) MLPAPKNLVVSRVTEDSARLSWTAPDAAFDSFFIGYLEPQPPGEAIQLWVPGSERSYDLTGLKPGTEYNVTIQGVKGGFPSRPLQAHFTT
803000 RLU | 636000 RLU | 75.8 | 60 | SEQ ID NO 110 (designed binder, FN3 domain) MLPAPKNLVVSRVTEDSARLSWTAPDAAFDSFFIGYLEPQPPGEAIYLTVPGSERSYDLTGLKPGTEYNVTIQGVKGGFPSYPLDASFTT
4.36e+06 RLU | 2.97e+06 RLU | 181 | 123 | SEQ ID NO 142 (designed binder, FN3 domain) MLPAPKNLVVSRVTEDSARLSWTAPDAAFDSFFIGYLEPQPPGEAIGLQVPGSERSYDLTGLKPGTEYNVTIQGVKGGFPSHPLKAQFTT
1.86e+06 RLU | 1.13e+06 RLU | 121 | 73.8 | SEQ ID NO 139 (designed binder, FN3 domain) MLPAPKNLVVSRVTEDSARLSWTAPDAAFDSFFIGYLEPQPPGEAIQLGVPGSERSYDLTGLKPGTEYNVTIQGVKGGFPSHPLNANFTT
4.42e+06 RLU | 2.74e+06 RLU | 137 | 85 | SEQ ID NO 126 (designed binder, FN3 domain) MLPAPKNLVVSRVTEDSARLSWTAPDAAFDSFFIGYLEPQPPGEAIHLHVPGSERSYDLTGLKPGTEYNVTIQGVKGGFPSIPLHANFTT
4.66e+06 RLU | 3.86e+06 RLU | 143 | 119 | SEQ ID NO 191 (designed binder, FN3 domain) MLPAPKNLVVSRVTEDSARLSWTAPDAAFDSFFIGYLEPQPPGEAIILAVPGSERSYDLTGLKPGTEYNVTIQGVKGGFPSLPLVASFTT
106000 RLU | 1.61e+06 RLU | 0.9 | 13.2 | SEQ ID NO 130 (designed binder, FN3 domain) MLPAPKNLVVSRVTEDSARLSWTAPDAAFDSFVIEYFEWTLNGEAIVLTVPGSERSYDLTGLKPGTEYSVQIYGVKGGCLSRPLSAIFTT
353000 RLU | 377000 RLU | 12.5 | 13.4 | SEQ ID NO 172 (designed binder, FN3 domain) MLPAPKNLVVSRVTEDSARLSWTAPDAAFDSFFIGYLEPQPPGEAIVLTVPGSERSYDLTGLKPGTEYNVTIQGVKGGFPSMPLASFTT
113000 RLU | 2.41e+06 RLU | 0.8 | 17.9 | SEQ ID NO 111 (designed binder, FN3 domain) MLPAPKNLVVSRVTEDSARLSWTAPDAAFDSFFIGYLEPQPPGEAIDLGVPGSERSYDLTGLKPGTEYNVTIQGVKGGFPSMPLDPLEAYFTT
